Reference: the Human Domainome abundance scans (Beltran et al. 2025)
± gives the uncertainty stated by the source.

B1: Far upstream element-binding protein 1, residues 184 to 257; numbered along this chain, Q96AE4 (parent)
chain: GNAVQEIMIPASKAGLVIGKGGETIKQLQERAGVKMVMIQDGPQNTGADKPLRITGDPYKVQQAKEMVLELIRD

Variants of: B1
Assay: abundance fitness (aPCA) (normalised: wild type 0, dead -1); higher = more abundant; growth selection in yeast, the domain comes from the species named
Conditions: Homo sapiens
Work on GNAVQEIMIPASKAGLVIGKGGETIKQLQERAGVKMVMIQDGPQNTGADKPLRIMGDPYKVQQAKEMVLELIRD [T55M] yielded an abundance fitness of -0.008 ± 0.042. For GNAVQEIMIPASKAGLVIGKGGETIKQLQERAGVKMVMIQDGPQNTGADKPLRICGDPYKVQQAKEMVLELIRD [T55C], the abundance fitness was -0.065 ± 0.045. Work on GNAVQEIMIPASKAGLVIGKGGETIKQLQERAGVKMVMIQDGPQNTGADKPLRILGDPYKVQQAKEMVLELIRD [T55L] yielded an abundance fitness of -0.05 ± 0.032. For GNAVQEIMIPASKAGLVIGKGGETIKQLQERAGVKMVMIQDGPQNTGADKPLRIKGDPYKVQQAKEMVLELIRD [T55K], the abundance fitness was -0.165 ± 0.034. Variant GNAVQEIMIPASKAGLVIGKGGETIKQLQERAGVKMVMIQDGPQNTGADKPLRIWGDPYKVQQAKEMVLELIRD [T55W] has an abundance fitness of -0.115 ± 0.037. In the case of GNAVQEIMIPASKAGLVIGKGGETIKQLQERAGVKMVMIQDGPQNTGADKPLRIIGDPYKVQQAKEMVLELIRD [T55I], the abundance fitness is reported as -0.023 ± 0.049. GNAVQEIMIPASKAGLVIGKGGETIKQLQERAGVKMVMIQDGPQNTGADKPLRIDGDPYKVQQAKEMVLELIRD [T55D] showed an abundance fitness of -0.111 ± 0.045. With GNAVQEIMIPASKAGLVIGKGGETIKQLQERAGVKMVMIQDGPQNTGADKPLRIQGDPYKVQQAKEMVLELIRD [T55Q] the abundance fitness was -0.022 ± 0.038. Work on GNAVQEIMIPASKAGLVIGKGGETIKQLQERAGVKMVMIQDGPQNTGADKPLRIPGDPYKVQQAKEMVLELIRD [T55P] yielded an abundance fitness of -0.963 ± 0.058. For GNAVQEIMIPASKAGLVIGKGGETIKQLQERAGVKMVMIQDGPQNTGADKPLRIEGDPYKVQQAKEMVLELIRD [T55E], the abundance fitness was -0.086 ± 0.032. For GNAVQEIMIPASKAGLVIGKGGETIKQLQERAGVKMVMIQDGPQNTGADKPLRINGDPYKVQQAKEMVLELIRD [T55N], the abundance fitness was -0.138 ± 0.042. In the case of GNAVQEIMIPASKAGLVIGKGGETIKQLQERAGVKMVMIQDGPQNTGADKPLRISGDPYKVQQAKEMVLELIRD [T55S], the abundance fitness is reported as -0.053 ± 0.032. In the case of GNAVQEIMIPASKAGLVIGKGGETIKQLQERAGVKMVMIQDGPQNTGADKPLRIFGDPYKVQQAKEMVLELIRD [T55F], the abundance fitness is reported as -0.062 ± 0.051. GNAVQEIMIPASKAGLVIGKGGETIKQLQERAGVKMVMIQDGPQNTGADKPLRIHGDPYKVQQAKEMVLELIRD [T55H] showed an abundance fitness of -0.096 ± 0.054. With GNAVQEIMIPASKAGLVIGKGGETIKQLQERAGVKMVMIQDGPQNTGADKPLRIYGDPYKVQQAKEMVLELIRD [T55Y] the abundance fitness was -0.132 ± 0.054. With GNAVQEIMIPASKAGLVIGKGGETIKQLQERAGVKMVMIQDGPQNTGADKPLRIRGDPYKVQQAKEMVLELIRD [T55R] the abundance fitness was -0.152 ± 0.027. In the case of GNAVQEIMIPASKAGLVIGKGGETIKQLQERAGVKMVMIQDGPQNTGADKPLRIVGDPYKVQQAKEMVLELIRD [T55V], the abundance fitness is reported as -0.047 ± 0.031. In the case of GNAVQEIMIPASKAGLVIGKGGETIKQLQERAGVKMVMIQDGPQNTGADKPLKITGDPYKVQQAKEMVLELIRD [R53K], the abundance fitness is reported as -0.025 ± 0.041. For GNAVQEIMIPASKAGLVIGKGGETIKQLQERAGVKMVMIQDGPQNTGADKPLWITGDPYKVQQAKEMVLELIRD [R53W], the abundance fitness was -0.205 ± 0.037. With GNAVQEIMIPASKAGLVIGKGGETIKQLQERAGVKMVMIQDGPQNTGADKPLMITGDPYKVQQAKEMVLELIRD [R53M] the abundance fitness was -0.031 ± 0.044. In the case of GNAVQEIMIPASKAGLVIGKGGETIKQLQERAGVKMVMIQDGPQNTGADKPLDITGDPYKVQQAKEMVLELIRD [R53D], the abundance fitness is reported as -0.616 ± 0.063. In the case of GNAVQEIMIPASKAGLVIGKGGETIKQLQERAGVKMVMIQDGPQNTGADKPLCITGDPYKVQQAKEMVLELIRD [R53C], the abundance fitness is reported as -0.111 ± 0.048. In the case of GNAVQEIMIPASKAGLVIGKGGETIKQLQERAGVKMVMIQDGPQNTGADKPLGITGDPYKVQQAKEMVLELIRD [R53G], the abundance fitness is reported as -0.52 ± 0.03. Variant GNAVQEIMIPASKAGLVIGKGGETIKQLQERAGVKMVMIQDGPQNTGADKPLAITGDPYKVQQAKEMVLELIRD [R53A] has an abundance fitness of -0.14 ± 0.033. Work on GNAVQEIMIPASKAGLVIGKGGETIKQLQERAGVKMVMIQDGPQNTGADKPLIITGDPYKVQQAKEMVLELIRD [R53I] yielded an abundance fitness of -0.049 ± 0.057. Work on GNAVQEIMIPASKAGLVIGKGGETIKQLQERAGVKMVMIQDGPQNTGADKPLHITGDPYKVQQAKEMVLELIRD [R53H] yielded an abundance fitness of -0.046 ± 0.055. Variant GNAVQEIMIPASKAGLVIGKGGETIKQLQERAGVKMVMIQDGPQNTGADKPLFITGDPYKVQQAKEMVLELIRD [R53F] has an abundance fitness of -0.116 ± 0.056. For GNAVQEIMIPASKAGLVIGKGGETIKQLQERAGVKMVMIQDGPQNTGADKPLEITGDPYKVQQAKEMVLELIRD [R53E], the abundance fitness was -0.116 ± 0.036. GNAVQEIMIPASKAGLVIGKGGETIKQLQERAGVKMVMIQDGPQNTGADKPLLITGDPYKVQQAKEMVLELIRD [R53L] gave an abundance fitness of -0.075 ± 0.033. Variant GNAVQEIMIPASKAGLVIGKGGETIKQLQERAGVKMVMIQDGPQNTGADKPLTITGDPYKVQQAKEMVLELIRD [R53T] has an abundance fitness of 0.008 ± 0.047. In the case of GNAVQEIMIPASKAGLVIGKGGETIKQLQERAGVKMVMIQDGPQNTGADKPLSITGDPYKVQQAKEMVLELIRD [R53S], the abundance fitness is reported as -0.148 ± 0.033. With GNAVQEIMIPASKAGLVIGKGGETIKQLQERAGVKMVMIQDGPQNTGADKPLNITGDPYKVQQAKEMVLELIRD [R53N] the abundance fitness was -0.257 ± 0.064. Variant GNAVQEIMIPASKAGLVIGKGGETIKQLQERAGVKMVMIQDGPQNTGADKPLPITGDPYKVQQAKEMVLELIRD [R53P] has an abundance fitness of -0.941 ± 0.062. GNAVQEIMIPASKAGLVIGKGGETIKQLQERAGVKMVMIQDGPQNTGADKPLQITGDPYKVQQAKEMVLELIRD [R53Q] showed an abundance fitness of -0.009 ± 0.038. GNAVQEIMIPASKAGLVIGKGGETIKQLQERAGVKMVMIQDGPQNTGADKPLRSTGDPYKVQQAKEMVLELIRD [I54S] showed an abundance fitness of -0.522 ± 0.045. GNAVQEIMIPASKAGLVIGKGGETIKQLQERAGVKMVMIQDGPQNTGADKPLRFTGDPYKVQQAKEMVLELIRD [I54F] showed an abundance fitness of -0.175 ± 0.058. GNAVQEIMIPASKAGLVIGKGGETIKQLQERAGVKMVMIQDGPQNTGADKPLRVTGDPYKVQQAKEMVLELIRD [I54V] gave an abundance fitness of -0.148 ± 0.033.
